Columns and labels:
Kti12 [1] = molecular target: Kti12 (UniProt P34253); assay: Elp2-myc IP of Elongator, anti-HA blot for Kti12; conditions: reference: wild type Elp1; sites S1209
Kti12 [2] = molecular target: Kti12 (UniProt P34253); assay: GFP-trap IP of Elp1-GFP, anti-HA blot, densitometry; conditions: reference: wild type Elp1-GFP; sites S1209
Elp1-S1209A-GFP = molecular target: T1, Elp1-S1209A-GFP (S. cerevisiae, UniProt Q06706 1-1349, S1209A); assay: co-IP; GFP-tagged Elp1 (genomic locus) precipitated with GFP-trap from yeast extracts; Western blot with anti-GFP and anti-HA; densitometry of Kti12-HA normalised to Elp1-GFP, wild type set to 1.0; conditions: partners not purified
T1 construct: Elp1 (Iki3), S. cerevisiae; also called mutant Elp1-GFP fusion; source: S. cerevisiae, expressed from its genomic locus, in cell extract
T1 sequence (looked up): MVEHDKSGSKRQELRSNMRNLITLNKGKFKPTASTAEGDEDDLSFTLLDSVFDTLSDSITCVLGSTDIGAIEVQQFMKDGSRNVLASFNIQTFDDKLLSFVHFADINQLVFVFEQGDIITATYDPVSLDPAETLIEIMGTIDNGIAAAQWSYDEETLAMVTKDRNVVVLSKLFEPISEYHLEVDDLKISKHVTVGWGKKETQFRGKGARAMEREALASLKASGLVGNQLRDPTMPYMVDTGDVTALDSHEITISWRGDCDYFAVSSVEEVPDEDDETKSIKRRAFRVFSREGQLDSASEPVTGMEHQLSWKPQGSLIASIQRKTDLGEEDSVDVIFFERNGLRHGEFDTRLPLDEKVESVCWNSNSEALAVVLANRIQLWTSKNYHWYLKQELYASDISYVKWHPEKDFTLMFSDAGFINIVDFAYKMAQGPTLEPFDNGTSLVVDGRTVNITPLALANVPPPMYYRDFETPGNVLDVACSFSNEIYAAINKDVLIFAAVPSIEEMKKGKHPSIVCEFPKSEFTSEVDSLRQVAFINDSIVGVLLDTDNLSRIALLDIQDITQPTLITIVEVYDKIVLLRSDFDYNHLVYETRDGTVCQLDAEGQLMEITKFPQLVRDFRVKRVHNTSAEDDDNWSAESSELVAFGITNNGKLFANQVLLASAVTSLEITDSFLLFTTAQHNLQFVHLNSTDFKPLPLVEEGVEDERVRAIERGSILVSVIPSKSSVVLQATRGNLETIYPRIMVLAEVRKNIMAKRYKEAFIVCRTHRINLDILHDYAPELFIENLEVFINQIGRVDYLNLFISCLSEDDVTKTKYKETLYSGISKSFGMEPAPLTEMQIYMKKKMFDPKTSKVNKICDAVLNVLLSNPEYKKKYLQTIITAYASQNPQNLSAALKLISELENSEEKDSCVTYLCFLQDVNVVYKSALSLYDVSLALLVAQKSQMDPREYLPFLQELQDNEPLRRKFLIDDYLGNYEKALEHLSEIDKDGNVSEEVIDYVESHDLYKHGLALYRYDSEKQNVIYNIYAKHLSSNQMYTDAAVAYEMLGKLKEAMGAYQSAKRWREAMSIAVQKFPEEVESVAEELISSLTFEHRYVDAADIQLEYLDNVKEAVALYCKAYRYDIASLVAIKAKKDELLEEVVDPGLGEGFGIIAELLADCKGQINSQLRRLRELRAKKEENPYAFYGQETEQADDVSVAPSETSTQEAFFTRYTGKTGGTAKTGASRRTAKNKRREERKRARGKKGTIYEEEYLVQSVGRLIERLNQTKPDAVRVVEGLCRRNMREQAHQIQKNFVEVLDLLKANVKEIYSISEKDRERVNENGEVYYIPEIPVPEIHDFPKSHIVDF

For “Elp1 (Iki3) (from UniProt Q06706) S1209A”, which “binding against the reference” value (Kti12 [1]) is on record?
The value was “stronger”.

How did the fold change (Kti12 [2]) turn out when “Elp1 (Iki3) (from UniProt Q06706) S1209A Elp1-GFP” was run?
The fold change was “stronger; reference 1.0”.

B1: Kti12-HA6 (natural protein, S. cerevisiae, UniProt P34253 1-313, looked up)
chain: MPLVLFTGYPCSGKTTLAKHLVQLLQSKIDATPSLSKYSITYHSDESLGIKHSDYITSQDERKLRSEIISAVKRDLSKNKIVIVDSLNYIKGFRYQLHCEVKNLSTTFCVIQTLCPPETIFEWNKTSNPNPWEPELLNQLIQRYEEPNSSNRWDSPLFAILTPQDNITDYIDDICKVVFQTSKSAKNSGHNDPLSKGLQKPNSATVLKPASQSNFIQVLDIETSKIIKTIMNHIKSLTSIGGVSNGTRVIVSEGITDINDDGCFFVDLPIGNVVTLAQLQRLKRQFINFNKLRDIDQDRIGPLFADYLNKNLN
notes: Kti12, accessory protein of Elongator, S. cerevisiae; also called HA-tagged Kti12; source: S. cerevisiae KTI12-HA6 strains, in cell extract
How did the “Kti12 co-precipitated, fold of wild-type Elp1” value (Elp1-S1209A-GFP) turn out when B1 was run?
The value was ~2 fold of wild-type Elp1.

Source: PMC4287497, “Phosphorylation of Elp1 by Hrr25 Is Required for Elongator-Dependent tRNA Modification in Yeast” (PLoS Genetics, 2015)
